According to patent US6344436:

Target: LDL receptor (UniProt P01130)
Test: cell-based or functional assay

LDL receptor, sequence (P01130 22-860 limits assumed): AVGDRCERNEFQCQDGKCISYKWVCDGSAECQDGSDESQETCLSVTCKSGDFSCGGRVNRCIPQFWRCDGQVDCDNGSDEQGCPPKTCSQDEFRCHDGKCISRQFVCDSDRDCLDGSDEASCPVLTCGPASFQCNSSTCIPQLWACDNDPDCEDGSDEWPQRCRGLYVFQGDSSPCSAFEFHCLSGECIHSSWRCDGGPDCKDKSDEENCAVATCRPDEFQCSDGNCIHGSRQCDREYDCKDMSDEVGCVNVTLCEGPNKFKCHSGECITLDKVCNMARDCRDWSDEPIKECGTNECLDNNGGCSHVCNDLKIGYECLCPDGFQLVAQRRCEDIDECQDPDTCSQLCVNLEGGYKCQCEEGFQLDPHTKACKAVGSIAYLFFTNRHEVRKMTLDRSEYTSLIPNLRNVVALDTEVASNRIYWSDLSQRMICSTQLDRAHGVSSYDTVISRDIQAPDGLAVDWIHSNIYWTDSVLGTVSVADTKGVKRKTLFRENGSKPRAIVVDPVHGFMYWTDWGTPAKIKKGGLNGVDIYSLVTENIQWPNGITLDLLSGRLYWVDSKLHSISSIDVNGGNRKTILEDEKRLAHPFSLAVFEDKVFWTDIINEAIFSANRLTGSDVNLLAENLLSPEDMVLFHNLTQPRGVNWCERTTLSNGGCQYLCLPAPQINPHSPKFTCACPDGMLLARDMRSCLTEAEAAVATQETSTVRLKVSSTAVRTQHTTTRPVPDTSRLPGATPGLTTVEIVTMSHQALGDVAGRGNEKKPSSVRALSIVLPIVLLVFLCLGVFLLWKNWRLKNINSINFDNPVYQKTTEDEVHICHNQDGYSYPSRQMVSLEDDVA

expression (transfection of 293 epithelial cells with peptide:DNA complexes), relative to wild-type apoE peptide complexes (% of wild-type apoE peptide complexes): 5
Substance: distearyl-glycyl-apoE-3^129-169(Q142) (peptide)
